Test results from PMC6876572.

What was measured:
[1] = target: Cof1-decorated (Cofilin-saturated) actin filament (rabbit | S. cerevisiae) (UniProt P68135); assay: single-molecule two-colour TIRF imaging; actin filaments (10% Alexa-488, 0.5% biotinylated) anchored along their lengths on streptavidin-coated coverslips, exposed to a mixture of Cy5-Srv2ΔCARP (8.3 or 83 nM hexamers) and 1 µM yeast Cof1 in TIRF buffer (10 mM imidazole pH 7.4, 50 mM KCl, 1 mM MgCl2, 1 mM EGTA, 0.2 mM ATP, 10 mM DTT); dwell and waiting times at the pointed end; kon corrected for unlabeled molecules
[2] = target: Cof1-decorated (Cofilin-saturated) actin filament (rabbit | S. cerevisiae) (UniProt P68135)

Substance	average dwell time at the pointed end [1] [s]	fractional occupancy of filament ends at 8.3 nM (calculated from kon and koff) [1] [%]	fractional occupancy of filament ends at 83 nM (calculated from kon and koff) [1] [%]	koff [1] [s⁻¹]	kon [1] [M⁻¹ s⁻¹]	KM of the rate of pointed-end depolymerization against N-Srv2 concentration at 1 µM Cof1 (mf-TIRF, fit to the Michaelis-Menten equation) [2] [µM]
Cy5-maleimide-labeled Srv2ΔCARP (S. cerevisiae Srv2/CAP lacking the CARP domain) (from UniProt P17555 1-526) (domain or fragment)	2.2	16	66	0.45	1.1e+07	–
N-Srv2 (N-terminal half of S. cerevisiae Srv2/CAP) (domain or fragment)	–	–	–	–	–	0.05
